What was measured:
Raf-1 (331-345) peptide = target: T1, Raf-1 (331-345) peptide
T1 chain: RPRGQRDSSFFWEIE

[1] = target: Raf-CR3 (wild type), recombinant Raf-1 catalytic fragment, calmodulin binding protein fusion, P04049
[2] = target: Raf-CR3[A338A339], P04049
[3] = target: Raf-CR3[D338E339], P04049

Protein | phosphorylation of the Raf-1 peptide (Raf-1 (331-345) peptide) | phosphorylation of Raf-CR3 [1] | phosphate incorporation into Raf-CR3 [1] | phosphate incorporation into Raf-CR3 [2] | phosphate incorporation into Raf-CR3 [3]
recombinant His-tagged mouse PAK3 from Sf9 cells (protein) MSDSLDNEEKPPAPPLRMNSNNRDSSALNHSSKPLPMAPEEKNKKARLRSIFPGGGDKTNKKKEKERPEISLPSDFEHTIHVGFDAVTGEFTGIPEQWARLLQTSNITKLEQKKNPQAVLDVLKFYDSKETVNNQKYMSFTSGDKSAHGYIAAHQSNTKTASEPPLAPPVSEEEDEEEEEEEDDNEPPPVIAPRPEHTKSIYTRSVVESIASPAAPNKEDIPPSAENANSTTLYRNTDRQRKKSKMTDEEILEKLRSIVSVGDPKKKYTRFEKIGQGASGTVYTALDIATGQEVAIKQMNLQQQPKKELIINEILVMRENKNPNIVNYLDSYLVGDELWVVMEYLAGGSLTDVVTETCMDEGQIAAVCRECLQALDFLHSNQVIHRDIKSDNILLGMDGSVKLTDFGFCAQITPEQSKRSTMVGTPYWMAPEVVTRKAYGPKVDIWSLGIMAIEMVEGEPPYLNENPLRALYLIATNGTPELQNPERLSAVFRDFLNRCLEMDVDRRGSAKELLQHPFLKLAKPLSSLTPLIIAAKEAIKNSSR | Recombinant His-tagged mouse PAK3 from Sf9 cells phosphorylated the Raf-1 peptide | strongly phosphorylated wild type Raf-CR3 |  |  | 
full-length PAK3 from rat spleen lysate (protein) SDNGELEDKPPAPPVRMSSTIFSTGGKDPLSANHSLKPLPSVPEEKKPRNKIISIFSSTEKGSKKKEKERPEISPPSDFEHTIHVGFDAVTGEFTGMPEQWARLLQTSNITKLEQKKNPQAVLDVLKFYDSNTVKQKYLSFTPPEKDGFPSGTPALNTKGSETSAVVTEEDDDDEDAAPPVIAPRPDHTKSIYTRSVIDPIPAPVGDSNVDSGAKSSDKQKKKAKMTDEEIMEKLRTIVSIGDPKKKYTRYEKIGQGASGTVFTATDVALGQEVAIKQINLQKQPKKELIINEILVMKELKNPNIVNFLDSYLVGDELFVVMEYLAGGSLTDVVTETCMDEAQIAAVCRECLQALEFLHANQVIHRDIKSDNVLLGMEGSVKLTDFGFCAQITPEQSKRSTMVGTPYWMAPEVVTRKAYGPKVDIWSLGIMAIEMVEGEPPYLNENPLRALYLIATNGTPELQNPEKLSPIFRDFLNRCLEMDVEKRGSAKELLQHPFLKLAKPLSSLTPLILAAKEAMKSNR |  |  | 4-fold more phosphate into wild type Raf-CR3 than into the non-phosphorylatable Raf-CR3[D338E339] or Raf-CR3[A338A339] site mutants | reduced ability of immunoprecipitated PAK3 to phosphorylate the Raf-CR3[A338,A339] or Raf-CR3[D338,E339] mutant proteins | reduced ability of immunoprecipitated PAK3 to phosphorylate the Raf-CR3[A338,A339] or Raf-CR3[D338,E339] mutant proteins
